Among the data in patent CN109678963A (UNIV CHINA PHARMA, dated 2019) are Kd, koff and kon values, retold here.

The target in assay [1] is T1, CD24裸肽 (CD24 naked peptide) (human, UniProt P25063 27-59, limits assumed).
T1 construct: also called 抗原CD24
T1 peptide (looked up): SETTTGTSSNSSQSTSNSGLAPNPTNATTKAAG
Kind of assay: SPR, Biacore X100; antibody captured by anti-human IgG(Fc) on a CM5 chip, CD24 naked peptide as analyte (100-0.39 nM), 25 C. In general terms: In SPR one partner is held on a chip, and binding of the other changes the refractive index at the surface.

The target in assay [2] is T2, 重组人rNKG2D分子 (recombinant human NKG2D) (human, UniProt P26718 78-216, limits assumed).
T2 construct: Used as SPR analyte; source and construct are not described
T2 sequence (looked up): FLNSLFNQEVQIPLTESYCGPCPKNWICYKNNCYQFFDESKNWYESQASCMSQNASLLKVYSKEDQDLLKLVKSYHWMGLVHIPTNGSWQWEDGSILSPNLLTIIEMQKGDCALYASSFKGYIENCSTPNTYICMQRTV
Kind of assay: SPR, Biacore X100; cG7-MICA captured by anti-human IgG(Fc) on a CM5 chip, recombinant human rNKG2D as analyte (100-6.25 nM).

B1: 靶向CD24的双特异性抗体cG7-MICA (anti-CD24 humanized chimeric antibody cG7 fused at the heavy chain C-terminus to the human MICA extracellular domains 1-3) (bispecific antibody)
heavy: not shown
light: DIVMTQTPLSLSVTIGQPASISCKSSQSLLHSDGKTYLNWLLQRPGQSPKRLIYLVSKLDSGVPDRFTGSGSGTDFTLKVSRVEAEDLGVYYCWQGAHFPYTFGGGTKLEIKVDTVAAPSVFIFPPSDEQLKSGTASVVCLLNNFYPREAKVQWKVDNALQSGNSQESVTEQDSKDSTYSLSSTLTLSKADYEKHKVYACEVTHQGLSSPVTKSFNRGEC
notes: Expressed in CHO-s, purified on Protein A, about 210 kD
As usually defined, the Kd is a measure of binding affinity in units of concentration. A word on the koff: it is the rate constant with which the complex falls apart. As usually defined, the kon is a measure of how fast the partners come together. In assay [1], B1 came in with a Kd of 0.242 nM, a koff of 0.000339 s⁻¹ and a kon of 1.4e+06 M⁻¹ s⁻¹. Moreover, in assay [2], the Kd was 576 nM, the koff is 0.0015 s⁻¹ and the kon is 2620 M⁻¹ s⁻¹.

B2: 抗CD24人源化嵌合抗体cG7 (antibody, V domains shown)
VH: QVKLEESGGGLVQPGGSLKISCAASGFDFSRYWMSWVRQAPGKGLEWIGEINPDSSTINYTPSLRDKFIISRDNAKNTLYLQMSKVRYEDTSLYYCARQGDYWGQGTSVTVSS
VL: not shown
In assay [1], B2 had a Kd of 0.191 nM, a koff of 0.000336 s⁻¹ and a kon of 1.76e+06 M⁻¹ s⁻¹.
